The source of these data is paper PMC4564277, “Biochemical and Structural Insights into the Mechanism of DNA Recognition by Arabidopsis [sequence] INSENSITIVE3” (PLoS ONE, 2015).

Numbering of substitutions follows the chain as printed.

For series [1], the target named is T1, EIN3 82-352 (optimal DBD) (Arabidopsis thaliana, UniProt O24606 82-352).
T1 sequence: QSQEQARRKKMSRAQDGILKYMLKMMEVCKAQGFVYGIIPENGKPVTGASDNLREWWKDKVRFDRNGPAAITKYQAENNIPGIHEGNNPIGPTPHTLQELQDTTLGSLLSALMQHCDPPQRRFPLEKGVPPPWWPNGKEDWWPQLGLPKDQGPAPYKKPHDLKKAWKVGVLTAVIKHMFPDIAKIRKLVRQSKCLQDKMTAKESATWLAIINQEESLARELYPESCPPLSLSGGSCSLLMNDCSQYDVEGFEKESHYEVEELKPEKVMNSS
The series is described as follows: EMSA; tighter than ERF1; EMSA: 1 nM biotin probe, 10 mM Tris-HCl pH 7.5, 40 mM KCl, 3 mM MgCl2, 1 mM EDTA, 10% glycerol, 1 mM DTT, 1 ug poly(dI-dC) in 20 uL, room temperature, 30 min. The conditions noted are these: protein: recombinant; tags: N-terminal His6 (pET-28a); chain copies: 2; label: 3' biotin on forward strand; blunt.

For series [2], the target named is T1, EIN3 82-352 (optimal DBD). The series is described as follows: EMSA; EMSA: 1 nM biotin probe, 10 mM Tris-HCl pH 7.5, 40 mM KCl, 3 mM MgCl2, 1 mM EDTA, 10% glycerol, 1 mM DTT, 1 ug poly(dI-dC) in 20 uL, room temperature, 30 min. The conditions noted are these: protein: recombinant, tags: N-terminal His6 (pET-28a), chain copies: 2. A general note: In EMSA bound probe runs differently from free probe, usually more slowly.

The next series deals with T2, EIN3 91-352 (Arabidopsis thaliana, UniProt O24606 91-352).
T2 sequence: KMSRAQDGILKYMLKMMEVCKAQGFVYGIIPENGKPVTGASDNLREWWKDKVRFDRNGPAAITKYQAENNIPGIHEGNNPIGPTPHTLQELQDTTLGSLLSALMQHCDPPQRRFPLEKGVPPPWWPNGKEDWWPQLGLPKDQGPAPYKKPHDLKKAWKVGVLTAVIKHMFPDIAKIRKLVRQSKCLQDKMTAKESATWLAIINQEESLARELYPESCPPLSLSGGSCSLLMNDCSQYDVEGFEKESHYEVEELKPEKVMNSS
The series is described as above. The conditions noted are these: protein: recombinant; tags: N-terminal His6 (pET-28a); chain copies: 2; label: 3' biotin on forward strand; blunt.

The next series concerns the target T3, EIN3 1-352 (Arabidopsis thaliana, UniProt O24606 1-352).
T3 sequence: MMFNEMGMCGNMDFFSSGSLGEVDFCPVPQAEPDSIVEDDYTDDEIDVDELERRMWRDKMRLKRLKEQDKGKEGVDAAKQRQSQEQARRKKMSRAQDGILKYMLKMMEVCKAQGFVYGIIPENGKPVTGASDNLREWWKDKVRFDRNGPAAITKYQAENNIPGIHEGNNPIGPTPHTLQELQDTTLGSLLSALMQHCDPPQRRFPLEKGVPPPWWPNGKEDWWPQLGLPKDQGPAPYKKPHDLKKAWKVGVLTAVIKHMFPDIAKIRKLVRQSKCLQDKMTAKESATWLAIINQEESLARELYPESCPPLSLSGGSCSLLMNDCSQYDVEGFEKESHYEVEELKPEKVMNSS
The series is described as above. The conditions noted are these: protein: recombinant; tags: N-terminal His6 (pET-28a); chain copies: 2; label: 3' biotin on forward strand; blunt.

A further series has as its target T4, EIN3 98-352 (Arabidopsis thaliana, UniProt O24606 98-352).
T4 sequence: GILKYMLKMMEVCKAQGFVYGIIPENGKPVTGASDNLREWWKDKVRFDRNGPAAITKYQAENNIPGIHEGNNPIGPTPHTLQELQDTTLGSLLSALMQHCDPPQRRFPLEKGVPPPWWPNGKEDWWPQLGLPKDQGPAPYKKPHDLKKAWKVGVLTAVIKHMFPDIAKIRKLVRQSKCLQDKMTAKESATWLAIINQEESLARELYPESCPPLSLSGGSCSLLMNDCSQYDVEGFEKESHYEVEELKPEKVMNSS
The description is as above. The conditions noted are these: protein: recombinant; tags: N-terminal His6 (pET-28a); chain copies: 2; label: 3' biotin on forward strand; blunt.

For another series, the target named is T5, EIN3 82-352 P216S (Arabidopsis thaliana, UniProt O24606 82-352, P216S).
T5 sequence: T1 sequence with P135S
The description is as above. The conditions noted are these: protein: recombinant; tags: N-terminal His6 (pET-28a); chain copies: 2; label: 3' biotin on forward strand; blunt.

A further series concerns the target T6, EIN3 68-352 (Arabidopsis thaliana, UniProt O24606 68-352).
T6 sequence: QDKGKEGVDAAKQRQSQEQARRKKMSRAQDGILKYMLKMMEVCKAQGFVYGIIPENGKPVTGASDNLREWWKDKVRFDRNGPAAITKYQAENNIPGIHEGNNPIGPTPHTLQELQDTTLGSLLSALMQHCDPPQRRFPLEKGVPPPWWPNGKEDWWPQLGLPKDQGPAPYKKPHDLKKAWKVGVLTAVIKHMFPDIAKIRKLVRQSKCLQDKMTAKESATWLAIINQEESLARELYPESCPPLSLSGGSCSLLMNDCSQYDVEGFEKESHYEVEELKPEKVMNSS
The description is as above. The conditions noted are these: protein: recombinant; tags: N-terminal His6 (pET-28a); chain copies: 2; label: 3' biotin on forward strand; blunt.

Series [3] deals with T1, EIN3 82-352 (optimal DBD). The series is described as above. The conditions noted are these: protein: recombinant; tags: N-terminal His6 (pET-28a); chain copies: 2; label: 3' biotin on forward strand; blunt.
Series [4] concerns the molecule itself. The series is described as follows: SEC-MALS; Superdex 200 analytical column, 1 ml/min, 10 mM Tris–HCl pH 7.5, 100 mM NaCl, 1 mM DTT, 4°C; no DNA. Background: SEC sorts molecules by how far they enter the pores of the column.
The mark [5] stands for this setting: label: 3' biotin on forward strand, blunt.

B1: 2EBS-S10-36 (dsDNA)
DNA 1: TGAAGATACATGCAATTAAGCATGTATCTTGAATCC
DNA 2: GGATTCAAGATACATGCTTAATTGCATGTATCTTCA
With B1, in series [1], the binding result is “binds”.

B2: 0EBS-S10 (dsDNA)
DNA 1: AAGTCGATCGCAAAAAAGCGATCGACTT
DNA 2: AAGTCGATCGCTTTTTTGCGATCGACTT
As usually defined, the Kd is the constant that tells how readily two partners part at equilibrium. B2: the Kd in series [2] (setting [5]) was around 2280 nM.

B3: 1EBS-S10 (dsDNA)
DNA 1: AAGATACATGCAAAAAAGCGATCGACTT
DNA 2: AAGTCGATCGCTTTTTTGCATGTATCTT
Take B3: in series [2] (setting [5]), the Kd was around 690 nM.

B4: 2EBS-S10-R (dsDNA)
DNA 1: AAGATGTATGCAAAAAAGCATACATCTT
DNA 2: AAGATGTATGCTTTTTTGCATACATCTT
For B4, the Kd in series [2] (setting [5]) was around 1240 nM.

B5: ERF1 (dsDNA)
DNA 1: GTTGTTTGGGATTCAAGGGGCATGTATCTTGAATCC
DNA 2: GGATTCAAGATACATGCCCCTTGAATCCCAAACAAC
On to B5, for which the binding result (in the series with EIN3 91-352; with EIN3 1-352; in the series with EIN3 98-352; in series [2] (setting [5]); with EIN3 82-352 P216S; with EIN3 68-352) was “binds” in each case.

B6: 2EBS-S8 (dsDNA)
DNA 1: AAGATACATGCAAAAGCATGTATCTT
DNA 2: AAGATACATGCTTTTGCATGTATCTT
For the molecule B6, the binding signal in series [3] was ~3 fold higher Kd than 2EBS-S10.

B7: EIN3 82–352 (optimal DNA-binding domain of Arabidopsis ETHYLENE …3) (domain or fragment, UniProt O24606 82-352, looked up)
chain: T1 sequence
notes: numbering based on UniProt O24606; Cloned into NheI/BamHI of pET-28a; Printed predicted Mw: monomer 31.29 kDa, dimer 62.58 kDa; also called optimal DBD; EIN3 truncation 82–352; source: E. coli Transetta (DE3), purified (Ni-NTA, Superdex 75 size exclusion)
For orientation: stoichiometry N means a count of units in the complex or per binding partner. With B7, the “stoichiometry N” value in [4] worked out at 2.
Turning to AAGATACATGCAAAAAAGCATGTATCTT (ssDNA) [2EBS-S10-F], in series [2] (label: 3' biotin, single strand), the binding result is “no binding”.

B8: 2EBS-S10 (dsDNA)
DNA 1: AAGATACATGCAAAAAAGCATGTATCTT
DNA 2: AAGATACATGCTTTTTTGCATGTATCTT
In the case of B8, the Kd in series [2] (setting [5]) is around 110 nM.

B9: 2EBS-S5 (dsDNA)
DNA 1: AAGATACATGCAGCATGTATCTT
DNA 2: AAGATACATGCTGCATGTATCTT
B9: the binding signal in series [3] is ~15 fold higher Kd than 2EBS-S10.

B10: 2EBS-S10-2 (dsDNA)
DNA 1: AAGGTACATGCAAAAAAGCATGTACCTT
DNA 2: AAGGTACATGCTTTTTTGCATGTACCTT
Consider B10, for which, in series [2] (setting [5]), the binding result is on record as “binds”.
